Experimental data reported in the RNAGym collection of RNA variant scans (doi:10.1021/acssynbio.7b00057).

B1: Pistol ribozyme (parent)
chain: GGGUCGUUGUUCCAUAAUCGCGUGGAUAUGGCACGCAAGUUUCUACCGGGCACCGUAAAUGUCCGACUGGAGCCGUUCGGGCGGCUAUAAACAGACCUCAGGCCCGAAGCGUGGCGGCACCUGCCGCCGGUGGUAAAAAAGAUCGGAAGAGCACACGUCU

Variants of: B1
Assay: aptazyme ON/OFF ratio, guanine; higher = stronger switching; co-transcriptional cleavage with and without guanine

Variant	aptazyme ON/OFF ratio
U7A G9C U10A U11C	1.04
U7A G9C U10A U11G	1.09
U7A G9C U10A U11G C12U C13A	1.03
U7A G9C U10A U11G C12U C13U	1.16
U7A G9C U10A U11G C12U C13G	1.07
U7A G9C U10A U11G C12G C13G	1.12
U7A G9C U10A U11G C12G C13A	1.06
U7A G9C U10A U11G C12G C13U	1.18
U7A G9A U10G U11G C12U C13A	1.17
U7A G9A U10G U11G C12U C13G	1.33
U7A G9A U10G U11G C12U C13U	1.26
U7A G9A C12U	2.04
U7A G9A C12G	2.38
U7A G9A U11C C12A C13U	1.16
U7A G9A U11C C12A C13A	1.17
U7A G9A U11C C12A C13G	1.14
U7A G9A U10C U11C C12A C13G	1.08
U7A G9A U10C U11C C12A C13U	1.12
U7A G9A U10C U11C C12A C13A	1.06
U7A G9C C12A C13A	1.07
U7A G9C C12A C13U	1.1
U7A G9C C12A C13G	1.04
U7A G9A U10A U11C C12G C13U	1.2
U7A G9A U10A U11C C12G C13G	1.42

Variant	aptazyme ON/OFF ratio
U7A G9A U10A U11C C12G C13A	1.08
U7A G9A C12U C13G	1.17
U7A G9A C12U C13A	1.04
U7A G9A C12U C13U	1.21
U7A G9A U11A C12A C13G	1.16
U7A G9A U11A C12A C13A	1.22
U7A G9A U11A C12A C13U	1.44
U7A G9C U10A C12G C13U	1.17
U7A G9C U10A C12G C13A	1.13
U7A G9C U10A C12G C13G	1.14
U7A G9A C13U	1.32
U7A G9A C13A	1.24
U7A G9A C13G	1.06
U7A G9A U11G C12U	2.19
U7A G9A U11G C12G	1.29
U7A G9A U11G C12A	1.18
U7A G9A U10A U11G	1.3
U7A G9A U10A U11C	1.07
U7A G9A U10A U11A	1.34
U7A G9A U10G U11G C12G C13A	1.2
U7A G9A U10G U11G C12G C13G	1.09
U7A G9A U10G U11G C12G C13U	1.16
U7A G9C U10A U11C C12G	1.21
U7A G9C U10A U11C C12A	1.08

Variant	aptazyme ON/OFF ratio
U7A G9C U10A U11C C12U	1.07
U7A G9A U10C C13U	1.12
U7A G9A U10C C13G	1.06
U7A G9A U10C C13A	1.06
U7A G9A U10A U11A C12A C13U	1.32
U7A G9A U10A U11A C12A C13A	1.41
U7A G9A U10A U11A C12A C13G	1.13
U7A G9A U10C U11A C12G	1.27
U7A G9A U10C U11A C12U	1.31
U7A G9A U10C U11A C12A	1.24
U7A G9A U11A C12U C13U	1.42
U7A G9A U11A C12U C13A	1.24
U7A G9A U11A C12U C13G	1.22
U7A G9A U10A U11G C13A	1.29
U7A G9A U10A U11G C13U	1.12
U7A G9A U10A U11G C13G	1.11
U7A G9A U10G	1.53
U7A G9A U10A	1.52
U7A G9A U10C	1.96
U7A G9A U10G U11C C12G C13G	1.18
U7A G9A U10G U11C C12G C13A	1.27
U7A G9A U10G U11C C12G C13U	1.1
U7A G9A U10A U11C C12A C13A	1.18
U7A G9A U10A U11C C12A C13U	1.1

Variant	aptazyme ON/OFF ratio
U7A G9A U10A U11C C12A C13G	1.15
U7A G9A U11C C12U C13U	1.22
U7A G9A U11C C12U C13A	1.1
U7A G9A U11C C12U C13G	1.27
U7A G9A U10G U11A	1.06
U7A G9A U10G U11G	1.08
U7A G9A U10G U11C	1.06
U7A G9C C12G	1.08
U7A G9C C12A	1.06
U7A G9C C12U	1.1
U7A G9C U10A U11A C13G	1.03
U7A G9C U10A U11A C13A	1.11
U7A G9C U10A U11A C13U	1.1
U7A G9C U10A U11A C12A C13G	1.07
U7A G9C U10A U11A C12A C13U	1.09
U7A G9C U10A U11A C12A C13A	1.13
U7A G9A U10A C12U C13G	1.11
U7A G9A U10A C12U C13A	1.1
U7A G9A U10A C12U C13U	1.2
U7A G9A U11G C12U C13A	1.34
U7A G9A U11G C12U C13U	1.27
U7A G9A U11G C12U C13G	1.2
U7A G9A U11A C12U	1.54
U7A G9A U11A C12G	1.23

Variant	aptazyme ON/OFF ratio
U7A G9A U11A C12A	1.34
U7A G9A U10A U11G C12A	1.1
U7A G9A U10A U11G C12G	1.13
U7A G9A U10A U11G C12U	1.17
U7A G9A U10A U11C C12U C13G	1.18
U7A G9A U10A U11C C12U C13A	1.13
U7A G9A U10A U11C C12U C13U	1.15
U7A G9A U10G C13A	1.29
U7A G9A U10G C13U	1.28
U7A G9A U10G C13G	1.17
U7A G9A U10A U11G C12G C13U	1.25
U7A G9A U10A U11G C12G C13A	1.32
U7A G9A U10A U11G C12G C13G	1.44
U7A G9A U10G U11A C12U	1.05
U7A G9A U10G U11A C12A	1.17
U7A G9A U10G U11A C12G	1.12
U7A G9A U10G U11A C12U C13G	1.06
U7A G9A U10G U11A C12U C13A	1.09
U7A G9A U10G U11A C12U C13U	1.17
U7A G9C U10A C13U	1.18
U7A G9C U10A C13A	1.16
U7A G9C U10A C13G	1.08
U7A G9A U10A U11A C13U	1.21
U7A G9A U10A U11A C13G	1.08

Variant	aptazyme ON/OFF ratio
U7A G9A U10A U11A C13A	1.15
U7A G9A U10G U11C C12U C13A	1.2
U7A G9A U10G U11C C12U C13U	1.21
U7A G9A U10G U11C C12U C13G	1.18
U7A G9A U10A U11C C12U	1.1
U7A G9A U10A U11C C12G	1.19
U7A G9A U10A U11C C12A	1.16
U7A G9A U11G C12G C13A	1.17
U7A G9A U11G C12G C13U	1.42
U7A G9A U11G C12G C13G	1.24
U7A G9A U11C	1.02
U7A G9A U11G	1.67
U7A G9A U11A	1.46
U7A G9C U10A	1.38
U7A G9A U10C U11G C12G C13U	1.14
U7A G9A U10C U11G C12G C13G	1.27
U7A G9A U10C U11G C12G C13A	1.17
U7A G9C C12U C13U	1.1
U7A G9C C12U C13A	1.05
U7A G9C C12U C13G	1.07
U7A G9C U10A U11A C12U C13A	1.13
U7A G9C U10A U11A C12U C13G	1.1
U7A G9C U10A U11A C12U C13U	1.1
U7A G9C U10A C12U C13U	1.12

Variant	aptazyme ON/OFF ratio
U7A G9C U10A C12U C13A	1.14
U7A G9C U10A C12U C13G	1.11
U7A G9A U10G U11G C12A C13U	1.33
U7A G9A U10G U11G C12A C13G	1.29
U7A G9A U10G U11G C12A C13A	1.2
U7A G9A U10C U11C C12G C13U	1.04
U7A G9A U10C U11C C12G C13G	1.09
U7A G9A U10C U11C C12G C13A	1.07
U7A G9A U10C U11C	1.01
U7A G9A U10C U11G	1.31
U7A G9A U10C U11A	1.27
U7A G9A U10G U11A C12G C13G	1.31
U7A G9A U10G U11A C12G C13U	1.17
U7A G9A U10G U11A C12G C13A	1.12
U7A G9C U10A U11C C12A C13U	1.09
U7A G9C U10A U11C C12A C13A	1.06
U7A G9C U10A U11C C12A C13G	1.1
U7A G9A U11G C12A C13A	1.1
U7A G9A U11G C12A C13U	1.28
U7A G9A U11G C12A C13G	1.28
U7A G9A U11A C12G C13U	1.28
U7A G9A U11A C12G C13G	1.16
U7A G9A U11A C12G C13A	1.19
